Results taken from article PMC3022644, “The exopolyphosphatase TbrPPX1 of Trypanosoma brucei” (BMC Microbiology, 2011).

Substrate: O=P(O)(O)OP(=O)(O)OP(=O)(O)O
Assay: purified protein
Format: biochemical, Trypanosoma brucei
Conditions: 50 mM HEPES pH 7.8, 50 μM EGTA, 1 mM MgCl2, 30°C, GST fusion

B1: TbrPPX1 (Trypanosoma brucei) (protein)
chain: MTAVVNEFLKRGVRALAARQDSVLVMGNEGGDMDTVIGSIFLAMYLEKRDVFGVGSYVPVLNFEKDDLPLRQDVVKLLSRHNVSTDSIYSVKQSGNGVDFLDLHQMKLPIVLYDHNKLSPEQVYLGERIVGVVDHHEDEQLYVDQTKCLRRICKTGSACTLVAELFNEAGLEVPCPELLLAPIVVDTVNFEPSQKRVTERDILASRLLVGRDDCGDYLTGMFKELMAWKNDIHCLTVPQHLRRDYKNFEFPFISAENKILRVGISSISCRSDELLSVHGVSSVSSNCIEFIKQRSIDMLLLTFAGERTPGSYCRQLGVVAKDEGLAALQAYCKKSPSGLDFTLLEDVTVNEWAFSIYELSDPSVSRKKLVPSLTSFLSVWNNL
Question: What does the source list for B1?
Answer: Km: 27.2 ± 4.2 µM; kcat: 8.1 ± 1.5 s⁻¹
